The results in this text go back to paper PMC11982978, “Cancer hotspot mutations rewire ERK2 specificity by selective exclusion of docking interactions” (The Journal of Biological Chemistry, 2025).

Like-named read-outs stand apart in the source and are kept apart here. Ends that are not written are not given here.

The target of assay [1] is T1, Active phosphorylated His6-tagged ERK2 E320K (rat (p-0033 says mouse)), P63086.
T1 chain: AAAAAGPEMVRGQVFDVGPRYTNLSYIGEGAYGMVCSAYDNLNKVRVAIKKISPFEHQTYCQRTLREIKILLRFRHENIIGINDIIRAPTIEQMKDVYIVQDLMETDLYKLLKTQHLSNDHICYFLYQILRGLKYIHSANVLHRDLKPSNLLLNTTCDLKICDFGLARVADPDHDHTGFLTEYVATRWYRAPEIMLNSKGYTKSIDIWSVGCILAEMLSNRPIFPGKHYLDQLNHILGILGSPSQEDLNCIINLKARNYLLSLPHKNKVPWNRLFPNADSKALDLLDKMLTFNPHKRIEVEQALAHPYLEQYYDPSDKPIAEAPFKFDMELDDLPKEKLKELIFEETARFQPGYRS
Conditions: modification not given; phosphorylated (active form; sites not given).

The target in assay [2] is T2, Active phosphorylated His6-tagged ERK2 R133K (rat (p-0033 says mouse)), P63086.
T2 chain: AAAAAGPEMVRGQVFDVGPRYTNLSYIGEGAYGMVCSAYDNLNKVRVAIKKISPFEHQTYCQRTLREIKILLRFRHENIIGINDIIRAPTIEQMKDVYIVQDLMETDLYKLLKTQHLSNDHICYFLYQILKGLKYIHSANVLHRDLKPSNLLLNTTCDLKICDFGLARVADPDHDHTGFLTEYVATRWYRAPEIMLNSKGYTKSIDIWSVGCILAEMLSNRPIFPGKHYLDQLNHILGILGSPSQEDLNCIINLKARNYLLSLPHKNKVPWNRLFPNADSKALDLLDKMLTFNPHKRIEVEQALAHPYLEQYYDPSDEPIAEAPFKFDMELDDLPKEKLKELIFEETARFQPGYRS
To be noted: modification not given; phosphorylated (active form; sites not given).

Assay [3] concerns the target T3, Active phosphorylated His6-tagged ERK2 WT (rat (p-0033 says mouse)), P63086. Conditions: modification not given; phosphorylated (active form; sites not given).
Assay [4] concerns the target T4, Active phosphorylated His6-tagged ERK2 D319N (rat (p-0033 says mouse)), P63086.
T4 chain: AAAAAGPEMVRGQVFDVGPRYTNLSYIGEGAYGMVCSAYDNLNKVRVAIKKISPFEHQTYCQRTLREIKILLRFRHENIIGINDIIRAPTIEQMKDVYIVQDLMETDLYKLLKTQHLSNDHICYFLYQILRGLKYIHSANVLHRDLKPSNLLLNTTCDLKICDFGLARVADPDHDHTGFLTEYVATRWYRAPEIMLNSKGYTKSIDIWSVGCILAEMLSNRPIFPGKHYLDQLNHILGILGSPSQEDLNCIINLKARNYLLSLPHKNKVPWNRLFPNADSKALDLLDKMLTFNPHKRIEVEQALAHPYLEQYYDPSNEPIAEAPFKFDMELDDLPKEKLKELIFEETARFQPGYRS
Conditions: modification not given; phosphorylated (active form; sites not given).

The target of assay [5] is T2, Active phosphorylated His6-tagged ERK2 …. To be noted: modification not given; phosphorylated (active form; sites not given).
Assay [6] deals with T1, Active phosphorylated His6-tagged ERK2 …. Conditions: modification not given; phosphorylated (active form; sites not given).
For assay [7], the target named is T4, Active phosphorylated His6-tagged ERK2 …. To be noted: modification not given; phosphorylated (active form; sites not given).
For assay [8], the target named is T3, Active phosphorylated His6-tagged ERK2 …. Conditions: modification not given; phosphorylated (active form; sites not given). The source holds these as a separate data set.
The target is the same in assay [9]. Nature of the assay: competitive peptide kinase assay; D-peptide titrated as competitive inhibitor of 10 nM ERK2 on 5 μM D-site dependent reporter peptide (AQT0376), 10 μM ATP; 54 mM HEPES pH 7.4, 1.2 mM DTT, 0.01% Brij-35, 1% glycerol, 0.2 mg/ml BSA, 10 mM MgCl2; fluorescence read-out; IC50 as relative binding affinity.
For assay [10], the target named is T4, Active phosphorylated His6-tagged ERK2 …. The description is as above.
The target in assay [11] is T1, Active phosphorylated His6-tagged ERK2 …. The assay is described as above.
Assay [12] deals with T2, Active phosphorylated His6-tagged ERK2 …. The assay is described as above.
The target in assay [13] is T3, Active phosphorylated His6-tagged ERK2 …. Conditions: modification not given; phosphorylated (active form; sites not given). This is another data set of the same source.
For assay [14], the target named is T4, Active phosphorylated His6-tagged ERK2 …. Conditions: modification not given; phosphorylated (active form; sites not given).
Assay [15] addresses T2, Active phosphorylated His6-tagged ERK2 …. To be noted: modification not given; phosphorylated (active form; sites not given).
Assay [16] deals with T1, Active phosphorylated His6-tagged ERK2 …. To be noted: modification not given; phosphorylated (active form; sites not given).

For PQKGRKPRDLELPL (not fully specified (some residues, N-terminus)) [ELK1], the IC50 was 43 µM in assay [1], 58 µM in assay [2], 35 µM in assay [3] and 32 µM in [4].
Consider GLQERRGSNVSLTL (not fully specified (some residues, N-terminus)) [PTPN5], for which the IC50 in assay [5] came out at 760 µM; in [6] it was 600 µM; in [7], 600 µM; in [8], 42 µM.
For the molecule IGRARRGLPRLAVSD (modifications not checked) [ISG20 D-peptide G2+], the IC50 came out at 120 µM in [9], 150 µM in [10], 170 µM in assay [11] and 150 µM in assay [12].
ARRKPVLPALTINP (not fully specified (some residues, N-terminus)) [MAP2K2]: the IC50 in assay [13] is 23 µM; in [14], 23 µM; in [15], 29 µM; in assay [16] it was 41 µM.
As to IRARRGGLPRLAVSD (modifications not checked) [ISG20 D-peptide G7+], the IC50 in assay [9] is 75 µM; in [10], 150 µM; in assay [11], 210 µM; in [12], 170 µM.

In general, IC50 refers to the concentration that gives 50% inhibition.
